The supplement of paper PMC9112550, “Optimization of the antimicrobial peptide Bac7 by deep mutational scanning” (BMC Biology, 2022)

System: Escherichia coli TOP10
Experiment: shrunken log2 fold change of peptide-encoding DNA abundance (4.5 h post-induction vs induction); higher = less antimicrobial activity (less host growth inhibition)
Details: time post-induction: 4.5 h; library: site-saturation at positions 5, 18, 19, 20
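Also: peptides expressed intracellularly from a pBAD plasmid library in pooled LB shake-flask culture, induced with 0.3% L-arabinose, DNA abundance read by NGS, three biological replicates, DESeq2 with apeglm shrinkage.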

Sequence	shrunken log2 fold change
RRIRFRPPRLPRPRPRPDCKPRP	0.154
RRIRPRPPRLPRPRPRPAFSPRP	0.117
RRIRWRPPRLPRPRPRPNMMPRP	0.00802
RRIRSRPPRLPRPRPRPCIKPRP	-0.0801
RRIRIRPPRLPRPRPRPITCPRP	-0.378
RRIRGRPPRLPRPRPRPELHPRP	1.04
RRIRVRPPRLPRPRPRPYSKPRP	0.12
RRIRVRPPRLPRPRPRPVIHPRP	-0.968
RRIRGRPPRLPRPRPRPYQSPRP	0.00308
RRIRHRPPRLPRPRPRPVSRPRP	-0.0482
RRIRMRPPRLPRPRPRPQFLPRP	-0.106
RRIRHRPPRLPRPRPRPENWPRP	0.147
RRIRPRPPRLPRPRPRPREQPRP	0.00917
RRIRFRPPRLPRPRPRPVSWPRP	0.44
RRIRERPPRLPRPRPRPRLLPRP	-0.335
RRIRWRPPRLPRPRPRPYLCPRP	-0.447
RRIRKRPPRLPRPRPRPRQVPRP	0.029
RRIRRRPPRLPRPRPRPEGRPRP	0.89
RRIRFRPPRLPRPRPRPNQAPRP	0.138
RRIRGRPPRLPRPRPRPINWPRP	0.193
RRIRPRPPRLPRPRPRPGRGPRP	0.611
RRIRSRPPRLPRPRPRPTCNPRP	0.0589
RRIRSRPPRLPRPRPRPKVQPRP	0.293
RRIRNRPPRLPRPRPRPDEVPRP	-0.00973
RRIRVRPPRLPRPRPRPPWGPRP	0.0932

Sequence	shrunken log2 fold change
RRIRRRPPRLPRPRPRPILMPRP	-0.00531
RRIRDRPPRLPRPRPRPFHEPRP	-0.048
RRIRGRPPRLPRPRPRPYEHPRP	0.256
RRIRTRPPRLPRPRPRPPTYPRP	-0.149
RRIRLRPPRLPRPRPRPVRTPRP	0.175
RRIRFRPPRLPRPRPRPKIHPRP	-0.557
RRIRERPPRLPRPRPRPVQNPRP	-0.0413
RRIRERPPRLPRPRPRPYMWPRP	-0.452
RRIRERPPRLPRPRPRPTLFPRP	0.0897
RRIRNRPPRLPRPRPRPSGQPRP	-0.188
RRIRHRPPRLPRPRPRPIGGPRP	0.111
RRIRDRPPRLPRPRPRPTSSPRP	0.058
RRIRDRPPRLPRPRPRPATLPRP	-0.146
RRIRTRPPRLPRPRPRPRMSPRP	-0.259
RRIRIRPPRLPRPRPRPDWLPRP	-0.166
RRIRPRPPRLPRPRPRPRIEPRP	0.175
RRIRTRPPRLPRPRPRPAKKPRP	0.00555
RRIRHRPPRLPRPRPRPPLDPRP	0.372
RRIRERPPRLPRPRPRPPKIPRP	-0.28
RRIRARPPRLPRPRPRPMAHPRP	0.733
RRIRRRPPRLPRPRPRPDTMPRP	0.0801
RRIRIRPPRLPRPRPRPITGPRP	-0.0492
RRIRKRPPRLPRPRPRPEMGPRP	0.502
RRIRGRPPRLPRPRPRPLPTPRP	1.14
RRIRNRPPRLPRPRPRPWWAPRP	-0.0446

Sequence	shrunken log2 fold change
RRIRVRPPRLPRPRPRPRLWPRP	0.45
RRIRPRPPRLPRPRPRPIWFPRP	-0.0151
RRIRGRPPRLPRPRPRPSKWPRP	-0.158
RRIRGRPPRLPRPRPRPCRSPRP	-0.0741
RRIRRRPPRLPRPRPRPVTAPRP	0.452
RRIRERPPRLPRPRPRPSWTPRP	-0.833
RRIRWRPPRLPRPRPRPRIWPRP	-0.0288
RRIRNRPPRLPRPRPRPACSPRP	0.0895
RRIRPRPPRLPRPRPRPRVKPRP	-0.0194
RRIRNRPPRLPRPRPRPLRPPRP	0.998
RRIRQRPPRLPRPRPRPWRIPRP	-0.416
RRIRHRPPRLPRPRPRPPWFPRP	-0.27
RRIRRRPPRLPRPRPRPSHGPRP	0.145
RRIRWRPPRLPRPRPRPNMNPRP	-0.345
RRIRYRPPRLPRPRPRPNGTPRP	-0.424
RRIRIRPPRLPRPRPRPCNCPRP	0.174
RRIRSRPPRLPRPRPRPAFDPRP	1.02
RRIRGRPPRLPRPRPRPLNDPRP	0.388
RRIRFRPPRLPRPRPRPDMQPRP	-0.313
RRIRWRPPRLPRPRPRPCAKPRP	-0.0723
RRIRFRPPRLPRPRPRPPDHPRP	0.28
RRIRGRPPRLPRPRPRPNTQPRP	0.224
RRIRNRPPRLPRPRPRPCFKPRP	-0.0138
RRIRYRPPRLPRPRPRPATMPRP	-0.69
RRIRTRPPRLPRPRPRPLADPRP	0.125

Sequence	shrunken log2 fold change
RRIRIRPPRLPRPRPRPPLVPRP	0.0482
RRIRFRPPRLPRPRPRPGARPRP	0.355
RRIRERPPRLPRPRPRPFVEPRP	0.0315
RRIRCRPPRLPRPRPRPKAWPRP	0.132
RRIRWRPPRLPRPRPRPPRNPRP	0.794
RRIRRRPPRLPRPRPRPVACPRP	0.41
RRIRPRPPRLPRPRPRPHMQPRP	0.151
RRIRSRPPRLPRPRPRPRTTPRP	0.318
RRIRTRPPRLPRPRPRPDWIPRP	-0.0498
RRIRTRPPRLPRPRPRPMGKPRP	0.0179
RRIRERPPRLPRPRPRPVNCPRP	-0.315
RRIRLRPPRLPRPRPRPWFEPRP	-0.218
RRIRLRPPRLPRPRPRPANHPRP	-0.333
RRIRWRPPRLPRPRPRPWETPRP	-0.01
RRIRCRPPRLPRPRPRPEQPPRP	0.581
RRIRARPPRLPRPRPRPIDGPRP	0.00408
RRIRYRPPRLPRPRPRPFFDPRP	1.09
RRIRWRPPRLPRPRPRPDDYPRP	0.0299
RRIRKRPPRLPRPRPRPQHHPRP	-0.201
RRIRHRPPRLPRPRPRPCQHPRP	-0.214
RRIRIRPPRLPRPRPRPKGFPRP	0.0347
RRIRPRPPRLPRPRPRPELQPRP	0.345
RRIRHRPPRLPRPRPRPNQMPRP	-0.0904
RRIRIRPPRLPRPRPRPSVGPRP	-0.261
RRIRARPPRLPRPRPRPWEHPRP	-0.0255

Sequence	shrunken log2 fold change
RRIRTRPPRLPRPRPRPTTQPRP	-0.338
RRIRMRPPRLPRPRPRPHGDPRP	-0.0284
RRIRVRPPRLPRPRPRPLMHPRP	-0.249
RRIRGRPPRLPRPRPRPCSGPRP	-0.111
RRIRLRPPRLPRPRPRPFRFPRP	-0.212
RRIRSRPPRLPRPRPRPGCAPRP	0.46
RRIRLRPPRLPRPRPRPQECPRP	-0.00874
RRIRKRPPRLPRPRPRPFHHPRP	-0.131
RRIRPRPPRLPRPRPRPDCVPRP	-0.0187
RRIRHRPPRLPRPRPRPCAAPRP	-0.195
RRIRARPPRLPRPRPRPHPSPRP	0.327
RRIRHRPPRLPRPRPRPQWYPRP	-0.0605
RRIRTRPPRLPRPRPRPQRNPRP	-0.115
RRIRWRPPRLPRPRPRPEYDPRP	0.695
RRIRARPPRLPRPRPRPGMRPRP	0.545
RRIRSRPPRLPRPRPRPTFPPRP	0.0566
RRIRRRPPRLPRPRPRPKWKPRP	-0.0205
RRIRMRPPRLPRPRPRPVGNPRP	0.0176
RRIRCRPPRLPRPRPRPALEPRP	-0.00844
RRIRGRPPRLPRPRPRPFQHPRP	-0.0674
RRIRWRPPRLPRPRPRPFNHPRP	-0.405
RRIRDRPPRLPRPRPRPKTPPRP	-0.00153
RRIRLRPPRLPRPRPRPMGIPRP	0.0924
RRIRPRPPRLPRPRPRPIDPPRP	-0.172
RRIRHRPPRLPRPRPRPTCRPRP	-0.232
